Laboratory results taken from US20020164657A1 (published 2002).

Molecular target: T1, Aβ 1-42
T1 construct: Obtained from Bachem, dissolved in 50% DMSO and used as the aggregated (insoluble) form; also called aggregated Aβ 1-42; beta-amyloid peptide 1-42
Assay: co-sedimentation with Aβ 1-42, SDS-PAGE densitometry
Method: Samples were centrifuged at 12,000×g in a micro centrifuge for 5 min. The supernatants were removed, and the pellets washed once with 40 mM Tris, pH 7.5, 10 mM MgCI₂, 1 mM DTT and centrifuged again. The pellets were resuspended in 100 μl buffer, electrophoresed on 12% SDS-PAGE next to the corresponding supernatant, and stained with Coomassie Blue R-250.

T1 sequence (peptide, as listed by the source): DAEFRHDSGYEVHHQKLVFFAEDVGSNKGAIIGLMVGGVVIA

B1: N-terminal tau (M1-238S) (other)
chain: MAEPRQEFEVMEDHAGTYGLGDRKDQGGYTMHQDQEGDTDAGLKAEEAGIGDTPSLEDEAAGHVTQARMVSKSKDGTGSDDKKAKGADGKTKIATPRGAAPPGQKGQANATRIPAKTPPAPKTPPSSGEPPKSGDRSGYSSPGSPGTPGSRSRTPSLPTPPTREPKKVAVVRTPPKSPSS
notes: also called N-terminal tau domain (IM-238S)
binding result: no binding
